Legend:
[1] = SEC-MALS
[2] = molecular target: recombinant 42 kDa processed form of the P. falciparum merozoite surface protein 1, FVO allele (MSP1_(42)-FVO) (Plasmodium falciparum); assay: SEC-MALS

For “recombinant 42 kDa processed form of the P. falciparum merozoite surface protein 1, FVO allele (MSP1_(42)-FVO)”, the “percent of the total peak area as aggregate” value [1] was “approximately 1.7 MDa for 96% of the total peak area”.

Work on “recombinant 42 kDa processed form of the P. falciparum merozoite surface protein 1, FVO allele (MSP1_(42)-FVO) (domain or fragment)” yielded a percent of the protein as dimers [2] of 72%, a percent of the protein as multimers [2] of 28% and a stoichiometry N [2] of 2.
